Usually Kd stands for the constant that tells how readily two partners part at equilibrium.

Two substances from patent publication US20050124794A1, “Cell surface tropomyosin as a target of angiogenesis inhibition” (priority 2002, published 2005) can be followed below.

Assay [1] deals with Tropomyosin (Tpm) exposed on the surface of proliferating human umbilical vein endothelial cells (human). Nature of the assay: biotin-HKa on unfixed subconfluent HUVEC in 96-well plates, 4 °C, with and without 10 µM Zn2+, streptavidin-peroxidase; nonlinear regression.
For assay [2], the target named is Chicken gizzard tropomyosin (Tpm), purified (chicken). The assay is described as follows: competition with 10 nM biotin-HKa on plate coated with chicken gizzard Tpm, 10 µM ZnCl2.
Chicken gizzard tropomyosin (Tpm), purified (chicken), sequence (chain, as listed by the source limits assumed): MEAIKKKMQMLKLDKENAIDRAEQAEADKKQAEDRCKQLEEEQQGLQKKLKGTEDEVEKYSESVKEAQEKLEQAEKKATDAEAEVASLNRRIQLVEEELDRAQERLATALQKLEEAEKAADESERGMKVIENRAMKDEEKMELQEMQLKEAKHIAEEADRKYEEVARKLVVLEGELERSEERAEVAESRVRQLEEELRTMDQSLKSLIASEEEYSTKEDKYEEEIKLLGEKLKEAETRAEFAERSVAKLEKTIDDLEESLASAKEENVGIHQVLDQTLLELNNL
Assay [3] has the same target. The assay is described as follows: plate assays on immobilized chicken gizzard Tpm (FIGS. 14 and 15).
Assay [4] has the same target. Nature of the assay: competition ELISA against 10 nM biotin-HKa on immobilized chicken gizzard Tpm, 10 uM ZnCl2; Kd by non-linear regression. (In an ELISA, binding on a coated surface is turned into a signal by an enzyme label.)

Endostatin (ligand), sequence (P39060 1572-1754): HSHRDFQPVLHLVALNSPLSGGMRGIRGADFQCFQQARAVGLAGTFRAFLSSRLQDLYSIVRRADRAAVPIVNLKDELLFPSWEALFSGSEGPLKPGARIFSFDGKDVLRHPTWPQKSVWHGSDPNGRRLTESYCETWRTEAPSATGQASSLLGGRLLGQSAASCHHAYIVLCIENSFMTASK

Substance “Two-chain high molecular weight kininogen (HKa) (from UniProt P01042 19-380; P01042 390-644) (ligand)” yielded a Kd in assay [1] of 2.5 nM.

With Endostatin (ligand), the Kd in assay [2] was found to be 2000 nM; in assay [4], 1970 nM. The substance also registered a fold lower affinity than HKa or HKa-D5 in assay [3] of 1000 fold.
